Results on nine molecules are retold here after US20240002501A1 (Memorial Sloan Kettering, published 2024).

The target in assay [1] is T1, L1-CAM-Fc (UniProt P32004 20-1120, limits assumed).
T1 construct: also called antigen L1-CAM-Fc; not shown: Fc part
Nature of the assay: SPR (Biacore T100), L1-CAM-Fc immobilised on CM5 chip. How it is done: (§1) In Vitro Binding Kinetics by Biacore T-100 Biosensor (GE Healthcare, Uppsala, Sweden). CM5 sensor chip (Research grade) and related reagents were purchased from Biacore USA (Piscataway, NJ). Antigen L1-CAM-Fc or L1-CAM-His was directly immobilized onto the CM5 sensor chip according to the manufacturer's instructions. Purified monoclonal antibodies (MoAbs) (mouse, chimeric IgG1 and IgG4, and humanized IgG1 and IgG4 versions of E71 and E72, and their IgG1n glycoforms) were diluted in HBS-EP buffer at varying concentrations (41.7˜666.7 nM) prior to analysis. Samples were injected over the sensor surface at a flow rate of 30 μl/min over 1 min. Association time was set for 1 min, dissociation time was set for from 5 min to 15 min. At the end of each cycle, the surface was regenerated using 50 mM NaOH at a flow rate of 50 μl/min over 1 min. The data were analyzed by the bivalent analyte model and default parameter setting for the rate constants using the Biacore T-100 evaluation software, and the apparent association on rate constant (kₒₙ), dissociation off rate constant (koff) and equilibrium dissociation constant (Kd=koff/kₒₙ) were calculated.

For another assay, the target named is T2, CD3 on CD3(+) T cells (UniProt P07766 23-207).
T2 construct: whole, on cells; CD3 is a complex of several chains
Nature of the assay: FACS immunostaining of CD3(+) T cells.

In assay [2] the target is T3, L1-CAM on L1-CAM(+) human tumor cells (human, UniProt P32004 20-1257). Briefly: cell-based or functional assay.
In assay [3] the target is T3, L1-CAM on L1-CAM(+) human tumor cells. Briefly: cell-based or functional assay. The source holds these as a separate data set.
The target in assay [4] is T1, L1-CAM-Fc. Briefly: SPR (Biacore T100), L1-CAM-Fc immobilised on CM5 chip. How it is done:
as §1
The binding of huE71-BsAb and huE72-BsAb to both target cells and effector cells was tested by FACS immunostaining. huE71-BsAb was equally efficient as parental huE71 in binding to L1-CAM(+) neuroblastoma BE(2)C, whereas the binding of huE72-BsAb to BE(2)C was half of that observed with huE71-BsAb (FIG. 38(A)). For binding to CD3(+) T cells, both huE71-BsAb and huE72-BsAb were less efficient compared to huOKT3 IgG1; around 20 fold weaker than huOKT3 (FIG. 38(B)). The reduced avidity of the light chain-anchored scFv of the BsAbs for T cells was attributable in part to the spatial constraints of this format, but is advantageous for minimizing cytokine release especially when target cells were not present.
This is another data set of the same source.

The target of the next assay is T4, L1-CAM-His.
T4 construct: recombinant soluble His-tagged antigen immobilised on the CM5 chip; also called antigen L1-CAM-His
Nature of the assay: SPR (Biacore T100), L1-CAM-His immobilised on CM5 chip. Here is the method:
as §1
On the technique in general: In SPR one partner is held on a chip, and binding of the other changes the refractive index at the surface.

Where a chain is given by its changes, count along the chain named. Where two headings read alike, the source gives them in different places.

T3 sequence (P32004 20-1257 limits assumed): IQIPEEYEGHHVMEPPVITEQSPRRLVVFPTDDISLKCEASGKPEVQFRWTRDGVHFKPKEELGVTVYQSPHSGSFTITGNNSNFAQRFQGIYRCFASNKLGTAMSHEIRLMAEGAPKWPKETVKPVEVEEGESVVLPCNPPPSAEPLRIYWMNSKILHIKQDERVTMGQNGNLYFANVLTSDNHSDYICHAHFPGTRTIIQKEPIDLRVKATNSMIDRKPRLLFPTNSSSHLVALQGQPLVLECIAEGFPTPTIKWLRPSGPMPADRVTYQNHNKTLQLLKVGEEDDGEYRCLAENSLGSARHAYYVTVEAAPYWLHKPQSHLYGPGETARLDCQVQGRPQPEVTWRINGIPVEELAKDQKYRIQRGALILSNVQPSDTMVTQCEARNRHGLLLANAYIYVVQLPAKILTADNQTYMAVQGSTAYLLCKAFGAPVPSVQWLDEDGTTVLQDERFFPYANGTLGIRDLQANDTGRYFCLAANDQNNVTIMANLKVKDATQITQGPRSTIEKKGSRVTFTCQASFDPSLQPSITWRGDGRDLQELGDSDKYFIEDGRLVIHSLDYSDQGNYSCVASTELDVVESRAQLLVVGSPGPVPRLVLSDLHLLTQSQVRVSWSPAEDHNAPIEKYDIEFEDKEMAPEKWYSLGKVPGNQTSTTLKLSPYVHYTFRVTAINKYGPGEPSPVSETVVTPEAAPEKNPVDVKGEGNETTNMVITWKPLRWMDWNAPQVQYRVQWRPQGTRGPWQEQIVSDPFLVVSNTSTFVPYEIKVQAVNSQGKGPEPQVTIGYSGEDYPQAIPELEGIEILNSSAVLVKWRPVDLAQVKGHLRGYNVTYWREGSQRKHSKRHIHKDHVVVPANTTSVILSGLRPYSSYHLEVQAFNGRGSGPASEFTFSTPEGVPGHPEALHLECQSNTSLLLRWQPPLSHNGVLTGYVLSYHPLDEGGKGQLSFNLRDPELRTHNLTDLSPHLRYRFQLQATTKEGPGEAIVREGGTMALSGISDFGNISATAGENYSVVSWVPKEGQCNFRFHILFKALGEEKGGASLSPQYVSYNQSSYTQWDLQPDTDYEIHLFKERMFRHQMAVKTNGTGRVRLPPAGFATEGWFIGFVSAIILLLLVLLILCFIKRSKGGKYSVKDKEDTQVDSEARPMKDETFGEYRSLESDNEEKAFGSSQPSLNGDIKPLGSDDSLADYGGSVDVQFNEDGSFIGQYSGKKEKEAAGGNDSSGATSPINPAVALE
T1 sequence (P32004 20-1120 limits assumed): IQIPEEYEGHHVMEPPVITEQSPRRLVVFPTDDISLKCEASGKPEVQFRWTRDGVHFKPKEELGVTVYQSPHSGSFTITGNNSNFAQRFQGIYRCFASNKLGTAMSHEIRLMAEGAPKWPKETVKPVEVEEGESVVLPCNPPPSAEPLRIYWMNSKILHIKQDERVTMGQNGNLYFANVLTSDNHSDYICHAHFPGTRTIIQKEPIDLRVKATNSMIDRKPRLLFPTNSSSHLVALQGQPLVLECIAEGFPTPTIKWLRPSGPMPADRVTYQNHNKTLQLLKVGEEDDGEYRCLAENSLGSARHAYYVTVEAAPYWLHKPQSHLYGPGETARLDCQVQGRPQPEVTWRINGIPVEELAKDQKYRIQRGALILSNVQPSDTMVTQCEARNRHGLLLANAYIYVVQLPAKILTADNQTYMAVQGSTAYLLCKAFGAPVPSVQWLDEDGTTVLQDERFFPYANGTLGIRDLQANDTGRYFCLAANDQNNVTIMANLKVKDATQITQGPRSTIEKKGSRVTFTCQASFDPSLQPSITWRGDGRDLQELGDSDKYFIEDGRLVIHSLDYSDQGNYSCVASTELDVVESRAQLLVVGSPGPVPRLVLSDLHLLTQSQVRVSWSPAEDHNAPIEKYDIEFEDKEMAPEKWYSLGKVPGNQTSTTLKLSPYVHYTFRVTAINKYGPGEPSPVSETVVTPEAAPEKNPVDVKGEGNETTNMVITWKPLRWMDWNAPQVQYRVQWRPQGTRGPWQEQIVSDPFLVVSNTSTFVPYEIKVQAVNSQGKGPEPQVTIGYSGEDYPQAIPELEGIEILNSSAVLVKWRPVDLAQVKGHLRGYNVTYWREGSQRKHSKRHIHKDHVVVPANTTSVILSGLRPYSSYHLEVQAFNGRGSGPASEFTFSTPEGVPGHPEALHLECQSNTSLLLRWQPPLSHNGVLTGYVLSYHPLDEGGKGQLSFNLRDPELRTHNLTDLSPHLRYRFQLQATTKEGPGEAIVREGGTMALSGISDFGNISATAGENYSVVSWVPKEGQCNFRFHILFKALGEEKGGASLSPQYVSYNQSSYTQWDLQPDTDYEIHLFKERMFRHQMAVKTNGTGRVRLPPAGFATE
T4 sequence (P32004 20-1120): as the sequence (P32004 20-1120 limits assumed) above
T2 sequence (P07766 23-207): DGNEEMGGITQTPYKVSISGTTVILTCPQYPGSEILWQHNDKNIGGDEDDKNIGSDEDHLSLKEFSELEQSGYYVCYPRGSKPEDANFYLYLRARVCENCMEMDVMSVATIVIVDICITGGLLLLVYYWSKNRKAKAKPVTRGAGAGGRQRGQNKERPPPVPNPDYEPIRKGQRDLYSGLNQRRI

B1: huE71-H2L2 (antibody, human IgG1, kappa, V domains shown)
VH: QVQLVQSGSELKKPGASVKLSCKASGYTFTSYWMQWVRQAPGQGLEWIGEINPSNGRTNYNEMFKSRAVLSVDTSVSTAYMQLCSLKAEDTAVYYCALYDGYYAMDYWGQGTLVTVSS
VL: DIVMTQSPDSLAVSLGERVTMNCKSSQSLLYSSNQKNYLAWYQQKPGQPPKLLIYWASTRESGVPDRFSGSGSGTDFTLTISSLQAEDVALYYCQQYHSYPFTFGQGTKLEIKR
B1: in the assay with L1-CAM-Fc [1], the affinity, expressed as Kd, was 2.72 nM.

B2: huE72-BsAb (huE72-huOKT3) (bispecific antibody, human IgG1, kappa, N297A)
heavy: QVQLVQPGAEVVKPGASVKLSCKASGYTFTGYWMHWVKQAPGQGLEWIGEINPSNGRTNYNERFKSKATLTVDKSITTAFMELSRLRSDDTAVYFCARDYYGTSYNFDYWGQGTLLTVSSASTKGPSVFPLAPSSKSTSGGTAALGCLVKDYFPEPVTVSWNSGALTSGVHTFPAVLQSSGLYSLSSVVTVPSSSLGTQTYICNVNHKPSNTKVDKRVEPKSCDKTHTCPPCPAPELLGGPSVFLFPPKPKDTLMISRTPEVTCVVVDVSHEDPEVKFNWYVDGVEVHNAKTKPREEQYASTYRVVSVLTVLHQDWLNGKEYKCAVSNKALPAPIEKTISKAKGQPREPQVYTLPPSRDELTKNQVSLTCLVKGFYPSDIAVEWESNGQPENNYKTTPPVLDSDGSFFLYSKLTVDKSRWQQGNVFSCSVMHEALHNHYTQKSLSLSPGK
light: DIQMTQSPSSLSVSVGDRVTITCKANEDINNRLAWYQQKPGKAPKLLISGATNLVTGVPSRFSGSGSGTDYTLTISSLQPEDFATYYCQQYWSTPFTFGQGTELEIKRTVAAPSVFIFPPSDEQLKSGTASVVCLLNNFYPREAKVQWKVDNALQSGNSQESVTEQDSKDSTYSLSSTLTLSKADYEKHKVYACEVTHQGLSSPVTKSFNRGECTSGGGGSGGGGSGGGGSQVQLVQSGGGVVQPGRSLRLSCKASGYTFTRYTMHWVRQAPGKCLEWIGYINPSRGYTNYNQKFKDRFTISRDNSKNTAFLQMDSLRPEDTGVYFCARYYDDHYSLDYWGQGTPVTVSSGGGGSGGGGSGGGGSGGGGSGGGGSGGGGSDIQMTQSPSSLSASVGDRVTITCSASSSVSYMNWYQQTPGKAPKRWIYDTSKLASGVPSRFSGSGSGTDYTFTISSLQPEDIATYYCQQWSSNPFTFGCGTKLQITR
notes: IgG-scFv format with huOKT3 scFv on the light chain; also called humanized E72-BsAb
Turning to B2, the “fold weaker binding than huOKT3 IgG1” value with CD3 on CD3(+) T cells was around 20 fold. For the same molecule, the “T cell cytotoxicity EC50, 4-hour 51Cr release assay, activated T cells (E:T ratio=10:1), IMR32-luciferase cell line” value in assay [2] is 0.05 nM. Also, in assay [3], the “EC50 of T cell cytotoxicity (4 h 51Cr release, E:T 10:1) on BE(1)N neuroblastoma cells (L1CAM MFI 614)” value came to 0.014 nM; the “EC50 of T cell cytotoxicity (4 h 51Cr release, E:T 10:1) on BE(2)C neuroblastoma cells (L1CAM MFI 608)” value was 0.05 nM; the “EC50 of T cell cytotoxicity (4 h 51Cr release, E:T 10:1) on BE(2)S neuroblastoma cells (L1CAM MFI 166)” value worked out at 0.251 nM; the “EC50 of T cell cytotoxicity (4 h 51Cr release, E:T 10:1) on HTB24 breast CA cells (L1CAM MFI 431)” value worked out at 0.027 nM. In addition, in assay [3], the “EC50 of T cell cytotoxicity (4 h 51Cr release, E:T 10:1) on HTB26 breast CA cells (L1CAM MFI 33)” value was 0.056 nM; the “EC50 of T cell cytotoxicity (4 h 51Cr release, E:T 10:1) on IMR32 LUC neuroblastoma cells (L1CAM MFI 285)” value turned out to be 0.05 nM; the “EC50 of T cell cytotoxicity (4 h 51Cr release, E:T 10:1) on MCF7 breast CA cells (L1CAM MFI 54)” value turned out to be 0.1 nM; the “EC50 of T cell cytotoxicity (4 h 51Cr release, E:T 10:1) on NB1691 neuroblastoma cells (L1CAM MFI 742)” value was determined as 0.031 nM. Moreover, in assay [3], the “EC50 of T cell cytotoxicity (4 h 51Cr release, E:T 10:1) on NMB7 neuroblastoma cells (L1CAM MFI 224)” value worked out at 0.046 nM; the “EC50 of T cell cytotoxicity (4 h 51Cr release, E:T 10:1) on SKMEL5 melanoma cells (L1CAM MFI 269)” value is 0.027 nM; the “EC50 of T cell cytotoxicity (4 h 51Cr release, E:T 10:1) on SKMEL28 melanoma cells (L1CAM MFI 184)” value came to 0.14 nM; the “EC50 of T cell cytotoxicity (4 h 51Cr release, E:T 10:1) on SKNMM LUC neuroblastoma cells (L1CAM MFI 598)” value stood at 0.071 nM. In addition, the “EC50 of T cell cytotoxicity (4 h 51Cr release, E:T 10:1) on SKNSH neuroblastoma cells (L1CAM MFI 23)” value in assay [3] was determined as 0.158 nM. In the assay with L1-CAM-Fc [4], binding was put at a Kd of 5.28 nM; the koff (in general, the first-order rate constant of dissociation) worked out at 0.000189 s⁻¹; the on-rate (kon) (as a rule, the second-order rate constant of association) was found to be 35800 M⁻¹ s⁻¹.

B3: huE72-IgG1 (huE72 H1/L2) (antibody, V domains shown)
VH: QVQLVQPGAEVVKPGASVKLSCKASGYTFTGYWMHWVKQAPGQGLEWIGEINPSNGRTNYNERFKSKATLTVDKSITTAFMELSRLRSDDTAVYFCARDYYGTSYNFDYWGQGTLLTVSS
VL: DIQMTQSPSSLSVSVGDRVTITCKANEDINNRLAWYQQKPGKAPKLLISGATNLVTGVPSRFSGSGSGTDYTLTISSLQPEDFATYYCQQYWSTPFTFGQGTELEIKR
notes: Human IgG1; also called humanized E72 IgG1
For the molecule B3, the Kd – broadly, the constant that tells how readily two partners part at equilibrium – with L1-CAM-His came out at 0.27 nM; in the assay with L1-CAM-Fc [1], 0.252 nM; with L1-CAM-Fc [4] it was 1.88 nM. The molecule also yielded a koff in the assay with L1-CAM-Fc [4] of 0.000139 s⁻¹. This molecule also returned a kon in the assay with L1-CAM-Fc [4] of 74000 M⁻¹ s⁻¹.

B4: E72-H2L1 (antibody, human IgG1, kappa, V domains shown)
VH: B3 VH with V12K, K38R, K67R, T77S, F80Y
VL: B3 VL with P8S, L11F, A43S, K45R, P80A
notes: also called huE72 H2/L1
Turning to B4, the equilibrium dissociation constant (Kd) with L1-CAM-His stood at 0.355 nM; in the assay with L1-CAM-Fc [1] it was 0.353 nM.

B5: E72-H2L2 (antibody, human IgG1, kappa, V domains shown)
VH: B3 VH with V12K, K38R, K67R, T77S, F80Y
VL: B3 VL
notes: also called huE72 H2/L2
For the molecule B5, the Kd came to 0.667 nM with L1-CAM-His and 0.536 nM with L1-CAM-Fc [1].

B6: E72-H1L1 (antibody, human IgG1, kappa, V domains shown)
VH: B3 VH
VL: B3 VL with P8S, L11F, A43S, K45R, P80A
notes: also called huE72 H1/L1
Turning to B6, the values for the dissociation constant Kd with L1-CAM-His and in the assay with L1-CAM-Fc [1] were 0.114 nM and 0.0893 nM, respectively.

B7: E71 (antibody, V domains shown)
VH: QVQLQQPGDELVKPGASVKLSCKASGYTFTSYWMQWVKQRPGQGLEWIGEINPSNGRTNYNEMFKSKATLTVDKSSSTAYMQLSSLTSEDSAVYYCALYDGYYAMDYWGQGTSVTVSS
VL: DIVMSQSPSSLAVSVGEKVTMSCKSSQSLLYSSNQKNYLAWYQQKPGQSPKLLIYWASTRESGVPDRFTGSGSGTDFTLTISSVKAEDLALYYCQQYHSYPFTFGSGTKLEIK
notes: parental murine anti-L1-CAM antibody; also called mouse E71; murine E71; copies: 2 + 2
In the assay with L1-CAM-Fc [1], B7 displayed a dissociation constant (Kd) of 0.314 nM. Moreover, in the assay with L1-CAM-Fc [4], binding was characterised by a dissociation constant (Kd) of 2.23 nM, the koff worked out at 0.000199 s⁻¹ and the kon came to 89300 M⁻¹ s⁻¹.

B8: huE71-H2L1 (antibody, human IgG1, kappa, V domains shown)
VH: B1 VH
VL: B1 VL with D9S, L15V, N22S, P49S, L84V, Q85K
As to B8, in the assay with L1-CAM-Fc [1], binding was put at a Kd of 4.26 nM. This lies in the single-digit nanomolar range.

B9: huE71-H1L2 (antibody, human IgG1, kappa, V domains shown)
VH: B7 VH with Q5V, T69V, T71S, S76V, S88A, S91T, S113L
VL: B1 VL
In the assay with L1-CAM-Fc [1], B9 returned a dissociation constant Kd of 0.517 nM.
